Reference: patent US20100216721A1

Columns and labels:
[1] = biological target: HIV-1 SF162 gp120 (HIV-1 strain SF162), P19550; assay: SPR (Biacore 3000); peptide over immobilized gp120
[2] = biological target: HIV-1 92UG037-08 gp120 (HIV-1 strain 92UG037-08); assay: SPR (Biacore 3000); peptide over immobilized gp120

Binder	Kd [1] [nM]	Kd [2] [nM]
RINNIPWSEAMM (modifications not checked) [HNG-105]	70.5	1840
RINNIPWSEAMM (modifications not checked) [HNG-156]	9	16.3
